The record followed here is article PMC2063226, “High-affinity recombinant phage antibodies to the pan-carcinoma marker epithelial glycoprotein-2 for tumour targeting” (British Journal of Cancer, 1998).

Data set [1] concerns the target recombinant epithelial glycoprotein-2 (EGP-2) (human) (UniProt P16422). As to the kind of experiment: SPR; BIAcore; EGP-2 covalently coupled to a CM-5 sensorchip (350 RU, 'low-density' surface); antibody (at 200 nM) or antibody fragment flowed at 5 ul/min; koff fitted on t = 315-320 s (MOC-31 whole antibody: average of three fittings); kon from Ks against antibody concentration; room temperature; apparent values for the bivalent antibodies.

Data set [2] concerns the target T1, recombinant epithelial glycoprotein-2 (EGP-2) (human, UniProt P16422).
Target sequence in this assay (P16422 24-265): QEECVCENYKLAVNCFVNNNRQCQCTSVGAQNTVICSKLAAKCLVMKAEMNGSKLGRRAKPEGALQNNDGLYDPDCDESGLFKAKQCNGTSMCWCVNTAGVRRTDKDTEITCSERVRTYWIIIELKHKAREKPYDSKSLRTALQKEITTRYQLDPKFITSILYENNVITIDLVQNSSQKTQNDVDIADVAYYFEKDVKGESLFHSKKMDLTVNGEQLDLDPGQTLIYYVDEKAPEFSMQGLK
Data set [3] concerns the molecule itself. The data set can be described thus: SEC; gel filtration (Superdex column) of the IMAC-purified scFv preparations; monomeric and dimeric forms separated.
For data set [4], the target named is T1, recombinant epithelial glycoprotein-2 …. As to the kind of experiment: SPR; BIAcore; EGP-2 covalently coupled to a CM-5 sensorchip (350 RU, 'low-density' surface); antibody (at 200 nM) or antibody fragment flowed at 5 ul/min; koff fitted on t = 315-320 s (MOC-31 whole antibody: average of three fittings); kon from Ks against antibody concentration; room temperature; apparent values for the bivalent antibodies. To be noted: both partners purified. For orientation: Surface plasmon resonance follows binding to a sensor surface in real time, without labels.

In the case of MOC-31 whole antibody, in data set [1], the Ka worked out at 4.24e+08 M⁻¹, the koff was 5e-05 s⁻¹, the on-rate constant (kon) was 106000 M⁻¹ s⁻¹ and the t1/2 amounted to 3.85 h.

B1: MOC-161 (antibody, V domains shown)
VH: QVQLQQSGTELIRPGTSVKISCKASGYAFTDYWLGWVKHRPGHGLEWIGDIYPGSDNTYYHEKFKGKATLTTDKSSSTAYMQLSSLTSEDSAVYFCARGLKGDYWGQGTTVTVSS
VL: DIQMTQSPSSLSAFSGGKVTITCKASQDIKKSIAWYQHKPGKGPRLLIHYTSTLQPGIPSRFSGSGSGEEYSFSISNLEPEDIATYYCQQYDNLRTFGGGTKLELK
As for B1, in data set [2], the binding result is recorded as “binds”.

B2: MOC-31 scFv (soluble) (scFv)
scFv: QVQLQQSGPELKKPGETVKISCKASGYTFTNYGMNWVKQAPGKGLKWMGWINTYTGESTYADDFKGRFAFSLETSASAAYLQINNLKNEDTATYFCARFAIKGDYWGQGTTVTVSSGGGGSGGGGSGGGGSDIVLTQSPFSNPVTLGTSASISCRSTKSLLHSNGITYLYWYLQKPGQSPQLLIYQMSNLASGVPDRFSSSGSGTDFTLRISRVEAEDVGVYYCAQNLEIPRTFGGGTKLEIKR
notes: 15-residue (Gly4Ser)3 linker, written out from the printed formula; The screening ELISA of the methods used clones in pCANTAB6 (His6 before c-myc); also called monovalent MOC-31 scFv; source: E. coli TG1, pUC119-polyHIS6myc, periplasm; purified (IMAC on Talon resin, gel filtration, monomer) for SPR; periplasmic preparation for immunohistochemistry; induced bacterial supernatant for ELISA; not …
As to B2, the binding result in data set [3] is given as “binds”. For the same molecule, in data set [1], the koff stood at 0.00034 s⁻¹ and the t1/2 worked out at 0.566 h.

B3: 323/A3 antibody (antibody, V domains shown)
VH: QIQLVQSGPELKKPGETVKISCKASGYTFTNYGMNWVRQASGEGLKWMGWINTYTGEPTYGEDFKGRFAFSLETSASTAYLQINNLKNEDTATYFCARFGNYVDYWGQGTTLTVSS
VL: DIVMTQAAFSNPVTLGTSASISCRSSKNLLHSNGITYLYWYLQKPGQSPHLLIYQMSNLASGVPDRFSSSGSGTDFTLRISRVEAEDVGVYYCAQNLEIPRTFGGGTKLEIK
notes: CDR3 identical); Murine whole bivalent antibody; source: gift from Dr SO Warnaar (Centocor, Leiden); copies: 2 + 2
Take B3: in data set [4], the koff came to 0.00106 s⁻¹, the kon was determined as 251000 M⁻¹ s⁻¹ and the t1/2 worked out at 654 s.

B4: 17-1A antibody (antibody, V domains shown)
VH: QVQLQQSGAELVRPGTSVKVSCKASGYAFTNYLIEWVKQRPGQGLEWIGVINPGSGGTNYNEKFKGKATLTADKSSSTAYMQLSSLTSDDSAVYFCARDGPWFAYWGQGTLVTVSA
VL: NIVMTQSPKSMSMSVGERVTLTCKASENVVTYVSWYQQKPEQSPKLLIYGASNRYTGVPDRFTGSGSATDFTLTISSVQAEDLADYHCGQGYSYPYTFGGGTKLEIK
notes: Murine whole bivalent antibody; also called 17-lA; source: gift from Dr SO Warnaar (Centocor, Leiden); copies: 2 + 2
In the case of B4, in data set [4], the koff is 0.0382 s⁻¹, the kon came out at 595000 M⁻¹ s⁻¹ and the t1/2 turned out to be 18 s.

B5: chimeric 17-1A (antibody, V domains shown)
VH: QVQLQQSGAELVRPGTSVKVSCKASGYAFTNYLIEWVKQRPGQGLEWIGVINPGSGGTNYNEKFKGKATLTADKSSSTAYMQLSSLTSDDSAVYFCARDGPWFAYWGQGTLVTVSA
VL: NIVMTQSPKSMSMSVGERVTLTCKASENVVTYVSWYQQKPEQSPKLLIYGASNRYTGVPDRFTGSGSATDFTLTISSVQAEDLADYHCGQGYSYPYTFGGGTKLEIK
notes: as the VH of m2 (17-1A); as the VL of m2 (17-1A); Whole bivalent antibody; also called chimeric version of 17-1A; source: gift from Dr SO Warnaar (Centocor, Leiden); copies: 2 + 2
For the molecule B5, in data set [4], the koff was 0.0583 s⁻¹, the kon was 1.09e+06 M⁻¹ s⁻¹ and the t1/2 was determined as 12 s.

Usually koff stands for the rate constant with which the complex falls apart. As a reminder, the kon is the rate constant with which the complex forms.
